± gives the standard deviation.
Experiment: collision cross section of modified peptide (TIMS, N2, iRT-aligned); higher = larger / more extended gas-phase ion
How it was run: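 Collision cross section values rest on the Mason-Schamp equation applied to calibrated, run-aligned mobility data from synthetic peptides. Mobility (1/K0) was calibrated with three reference ions and aligned per run to the median iRT peptide deviation, and 1–3 technical replicates of the most abundant feature per charge state were averaged. Data came from a timsTOF Pro/HT in dda-PASEF mode (nitrogen, ~2.4 mbar) after a 120-min nanoflow C18 gradient at 60 °C.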

[1] = charge state: 2, modification: Butyryl
[2] = charge state: 3, modification: Butyryl
[3] = charge state: 2, modification: Crotonyl
[4] = charge state: 3, modification: Crotonyl
[5] = charge state: 2, modification: Dimethyl (K)
[6] = charge state: 3, modification: Dimethyl (K)
[7] = charge state: 2, modification: Formyl
[8] = charge state: 2, modification: Glutarylation
[9] = charge state: 3, modification: Glutarylation
[10] = charge state: 2, modification: GlyGly (K)
[11] = charge state: 3, modification: GlyGly (K)
[12] = charge state: 2, modification: Malonyl
[13] = charge state: 2, modification: Methyl (K)
[14] = charge state: 3, modification: Methyl (K)
[15] = charge state: 2, modification: Propionyl
[16] = charge state: 2, modification: Succinyl
[17] = charge state: 3, modification: Succinyl
[18] = charge state: 2, modification: Trimethyl (K)
[19] = charge state: 3, modification: Trimethyl (K)
[20] = charge state: 2, modification: hydroxyisobutyryl
[21] = charge state: 2, modification: Acetyl (K)
[22] = charge state: 3, modification: Acetyl (K)
[23] = charge state: 2, modification: Biotin
[24] = charge state: 3, modification: Formyl
[25] = charge state: 3, modification: hydroxyisobutyryl
[26] = charge state: 2, modification: HexNAc (ST)
[27] = charge state: 2, modification: Nitro (Y)
[28] = charge state: 2, modification: Phospho (Y)
[29] = charge state: 3, modification: HexNAc (ST)

## SSFAYKDQNENR [_SSFAYK(Butyryl)DQNENR_]
[1]
  collision cross section: 402.63 ± 0.85 Å²
[2]
  collision cross section: 462.59 ± 3.8 Å²

## SSFAYKDQNENR [_SSFAYK(Crotonyl)DQNENR_]
[3]
  collision cross section: 403.46 ± 0.27 Å²
[4]
  collision cross section: 461.83 ± 1.6 Å²

## SSFAYKDQNENR [_SSFAYK(Dimethyl (K))DQNENR_]
[5]
  collision cross section: 406.82 ± 0.47 Å²
[6]
  collision cross section: 455.28 ± 0.51 Å²

## SSFAYKDQNENR [_SSFAYK(Formyl)DQNENR_]
[7]
  collision cross section: 394.76 ± 0.75 Å²

## SSFAYKDQNENR [_SSFAYK(Gluratylation)DQNENR_]
[8]
  collision cross section: 404.81 ± 0.5 Å²
[9]
  collision cross section: 472.81 ± 1.2 Å²

## SSFAYKDQNENR [_SSFAYK(GlyGly (K))DQNENR_]
[10]
  collision cross section: 412.56 ± 1.4 Å²
[11]
  collision cross section: 465.62 ± 2 Å²

## SSFAYKDQNENR [_SSFAYK(Malonyl)DQNENR_]
[12]
  collision cross section: 401.56 ± 0.03 Å²

## SSFAYKDQNENR [_SSFAYK(Methyl (K))DQNENR_]
[13]
  collision cross section: 422.28 ± 0.64 Å²
[14]
  collision cross section: 455.52 ± 4 Å²

## SSFAYKDQNENR [_SSFAYK(Propionyl)DQNENR_]
[15]
  collision cross section: 401.75 ± 0.65 Å²
Charge state: 3, modification: Propionyl
  collision cross section: 462.04 Å²

## SSFAYKDQNENR [_SSFAYK(Succinyl)DQNENR_]
[16]
  collision cross section: 400.73 ± 0.25 Å²
[17]
  collision cross section: 453.96 Å²

## SSFAYKDQNENR [_SSFAYK(Trimethyl (K))DQNENR_]
[18]
  collision cross section: 417.36 ± 0.75 Å²
[19]
  collision cross section: 458.31 ± 1.5 Å²

## SSFAYKDQNENR [_SSFAYK(hydroxyisobutyryl)DQNENR_]
[20]
  collision cross section: 405.04 ± 0.3 Å²

## SSGPGGQNVNKVNSK [_SSGPGGQNVNK(Acetyl (K))VNSK_]
[21]
  collision cross section: 401.59 ± 1.4 Å²
[22]
  collision cross section: 440.11 ± 2.5 Å²

## SSGPGGQNVNKVNSK [_SSGPGGQNVNK(Biotin)VNSK_]
[23]
  collision cross section: 422.28 ± 2 Å²
Charge state: 3, modification: Biotin
  collision cross section: 467.62 ± 0.34 Å²

## SSGPGGQNVNKVNSK [_SSGPGGQNVNK(Butyryl)VNSK_]
[1]
  collision cross section: 405.84 ± 0.57 Å²
[2]
  collision cross section: 443.95 ± 2 Å²

## SSGPGGQNVNKVNSK [_SSGPGGQNVNK(Crotonyl)VNSK_]
[3]
  collision cross section: 407.39 ± 1.4 Å²

## SSGPGGQNVNKVNSK [_SSGPGGQNVNK(Dimethyl (K))VNSK_]
[5]
  collision cross section: 397.16 ± 1.7 Å²
[6]
  collision cross section: 437.57 ± 2.1 Å²

## SSGPGGQNVNKVNSK [_SSGPGGQNVNK(Formyl)VNSK_]
[7]
  collision cross section: 398.34 ± 0.83 Å²
[24]
  collision cross section: 435.41 ± 4.1 Å²

## SSGPGGQNVNKVNSK [_SSGPGGQNVNK(Gluratylation)VNSK_]
[8]
  collision cross section: 409.46 ± 0.95 Å²
[9]
  collision cross section: 446.64 ± 1.9 Å²

## SSGPGGQNVNKVNSK [_SSGPGGQNVNK(GlyGly (K))VNSK_]
[10]
  collision cross section: 407.13 ± 1.4 Å²
[11]
  collision cross section: 459.52 ± 3 Å²

## SSGPGGQNVNKVNSK [_SSGPGGQNVNK(Malonyl)VNSK_]
[12]
  collision cross section: 402.61 ± 1.8 Å²
Charge state: 3, modification: Malonyl
  collision cross section: 439.94 ± 2.2 Å²

## SSGPGGQNVNKVNSK [_SSGPGGQNVNK(Methyl (K))VNSK_]
[13]
  collision cross section: 397.83 ± 2.2 Å²
[14]
  collision cross section: 442.38 ± 4.2 Å²

## SSGPGGQNVNKVNSK [_SSGPGGQNVNK(Propionyl)VNSK_]
[15]
  collision cross section: 404.47 ± 0.49 Å²

## SSGPGGQNVNKVNSK [_SSGPGGQNVNK(Succinyl)VNSK_]
[16]
  collision cross section: 404.66 ± 0.55 Å²
[17]
  collision cross section: 443.1 ± 4 Å²

## SSGPGGQNVNKVNSK [_SSGPGGQNVNK(Trimethyl (K))VNSK_]
[18]
  collision cross section: 400.23 ± 1.6 Å²
[19]
  collision cross section: 442.26 ± 2.4 Å²

## SSGPGGQNVNKVNSK [_SSGPGGQNVNK(hydroxyisobutyryl)VNSK_]
[20]
  collision cross section: 407.53 ± 1.1 Å²
[25]
  collision cross section: 447.88 ± 1.1 Å²

## SSSAGGQGSYVPLLR [_SSS(HexNAc (ST))AGGQGSYVPLLR_]
[26]
  collision cross section: 427.89 ± 0.57 Å²

## STCTYVGAAK [_STCTY(Nitro (Y))VGAAK_]
[27]
  collision cross section: 340.86 ± 0.72 Å²

## STCTYVGAAK [_STCTY(Phospho (Y))VGAAK_]
[28]
  collision cross section: 346.22 ± 0.0011 Å²

## STGLELETPSLVPVKK [_STGLELETPSLVPVK(Acetyl (K))K_]
[21]
  collision cross section: 431.84 ± 2.2 Å²
[22]
  collision cross section: 518.73 ± 1.1 Å²

## STGLELETPSLVPVKK [_STGLELETPSLVPVK(Biotin)K_]
[23]
  collision cross section: 465.71 Å²

## STGLELETPSLVPVKK [_STGLELETPSLVPVK(Butyryl)K_]
[1]
  collision cross section: 438.73 ± 0.53 Å²
[2]
  collision cross section: 522.48 ± 2.1 Å²

## STGLELETPSLVPVKK [_STGLELETPSLVPVK(Crotonyl)K_]
[3]
  collision cross section: 437.59 Å²
[4]
  collision cross section: 521.61 Å²

## STGLELETPSLVPVKK [_STGLELETPSLVPVK(Dimethyl (K))K_]
[5]
  collision cross section: 456.56 ± 2.3 Å²
[6]
  collision cross section: 515.08 ± 1.7 Å²

## STGLELETPSLVPVKK [_STGLELETPSLVPVK(Formyl)K_]
[7]
  collision cross section: 431.64 ± 1.2 Å²
[24]
  collision cross section: 516.5 ± 3 Å²

## STGLELETPSLVPVKK [_STGLELETPSLVPVK(Gluratylation)K_]
[8]
  collision cross section: 457.67 ± 1.1 Å²
[9]
  collision cross section: 527.31 ± 1.8 Å²

## STGLELETPSLVPVKK [_STGLELETPSLVPVK(GlyGly (K))K_]
[10]
  collision cross section: 452.54 ± 1.9 Å²
[11]
  collision cross section: 530.27 ± 9.4 Å²

## STGLELETPSLVPVKK [_STGLELETPSLVPVK(Malonyl)K_]
[12]
  collision cross section: 445.74 ± 0.66 Å²

## STGLELETPSLVPVKK [_STGLELETPSLVPVK(Methyl (K))K_]
[13]
  collision cross section: 452.34 ± 2.6 Å²
[14]
  collision cross section: 516.69 ± 3.1 Å²

## STGLELETPSLVPVKK [_STGLELETPSLVPVK(Propionyl)K_]
[15]
  collision cross section: 435.15 Å²

## STGLELETPSLVPVKK [_STGLELETPSLVPVK(Succinyl)K_]
[16]
  collision cross section: 449.72 ± 9.5 Å²
[17]
  collision cross section: 499.21 ± 23 Å²

## STGLELETPSLVPVKK [_STGLELETPSLVPVK(Trimethyl (K))K_]
[18]
  collision cross section: 461.73 ± 1.2 Å²
[19]
  collision cross section: 522.47 ± 0.88 Å²

## STGLELETPSLVPVKK [_STGLELETPSLVPVK(hydroxyisobutyryl)K_]
[20]
  collision cross section: 440.07 ± 0.82 Å²
[25]
  collision cross section: 511.71 ± 25 Å²

## STLEEPNLQPLQR [_S(HexNAc (ST))TLEEPNLQPLQR_]
[26]
  collision cross section: 436.25 ± 0.56 Å²

## STNVTVAAARGIK [_STNVTVAAAR(Citrullination (R))GIK_]
Charge state: 2, modification: Citrullination (R)
  collision cross section: 395.23 ± 1.3 Å²
Charge state: 3, modification: Citrullination (R)
  collision cross section: 471.03 Å²

## STNVTVAAARGIK [_STNVTVAAAR(Methyl (R))GIK_]
Charge state: 2, modification: Methyl (R)
  collision cross section: 403.35 ± 0.97 Å²
Charge state: 3, modification: Methyl (R)
  collision cross section: 483.31 ± 3.1 Å²

## SVGGSGGGSFGDNLVTR [_SVGGSGGGSFGDNLVT(HexNAc (ST))R_]
[26]
  collision cross section: 423.68 ± 0.13 Å²

## SVSSSSYR [_SVSSSSY(Nitro (Y))R_]
[27]
  collision cross section: 311.12 ± 0.16 Å²

## SVSSSSYR [_SVSSSSY(Phospho (Y))R_]
[28]
  collision cross section: 317.55 ± 0.69 Å²

## SYGIPYIETSAK [_SY(Nitro (Y))GIPYIETSAK_]
[27]
  collision cross section: 386.26 ± 0.17 Å²

## SYGIPYIETSAK [_SY(Phospho (Y))GIPYIETSAK_]
[28]
  collision cross section: 390.55 ± 0.64 Å²

## SYHLQIVTK [_SY(Nitro (Y))HLQIVTK_]
[27]
  collision cross section: 345.14 ± 0.74 Å²
Charge state: 3, modification: Nitro (Y)
  collision cross section: 449.3 ± 1.2 Å²

## SYHLQIVTK [_SY(Phospho (Y))HLQIVTK_]
[28]
  collision cross section: 357.29 ± 0.065 Å²
Charge state: 3, modification: Phospho (Y)
  collision cross section: 461.35 ± 0.12 Å²

## SYISSQTNDTHK [_S(HexNAc (ST))YISSQTNDTHK_]
[26]
  collision cross section: 405.45 ± 0.67 Å²

## SYISSQTNDTHK [_SYIS(HexNAc (ST))SQTNDTHK_]
[29]
  collision cross section: 474.05 ± 0.17 Å²

## SYSVGASGSSSR [_SY(Nitro (Y))SVGASGSSSR_]
[27]
  collision cross section: 351.9 ± 1.2 Å²

## SYSVGASGSSSR [_SY(Phospho (Y))SVGASGSSSR_]
[28]
  collision cross section: 356.68 ± 0.65 Å²

## SYVDTGGVSR [_SY(Nitro (Y))VDTGGVSR_]
[27]
  collision cross section: 342.4 ± 0.16 Å²

## SYVDTGGVSR [_SY(Phospho (Y))VDTGGVSR_]
[28]
  collision cross section: 347.56 ± 0.066 Å²

## TAGSSGVTAGRPRPTAR [_TAGSSGVTAGRPRPT(HexNAc (ST))AR_]
[29]
  collision cross section: 527.29 ± 0.18 Å²

## TAIQAAGYPDK [_TAIQAAGY(Nitro (Y))PDK_]
[27]
  collision cross section: 354.49 ± 0.55 Å²

## TAIQAAGYPDK [_TAIQAAGY(Phospho (Y))PDK_]
[28]
  collision cross section: 361.65 ± 9.9 Å²

## TATLATLATR [_TATLATLAT(HexNAc (ST))R_]
[26]
  collision cross section: 364.8 ± 0.64 Å²

## TELLPGDRDNLAIQTR [_TELLPGDRDNLAIQT(HexNAc (ST))R_]
[29]
  collision cross section: 528.81 ± 0.18 Å²

## TEVLSPNSKVESK [_TEVLSPNSK(Acetyl (K))VESK_]
[21]
  collision cross section: 411.3 ± 1.6 Å²
[22]
  collision cross section: 448.45 ± 2.4 Å²
